# Results from a protein production outcome set (Wang et al. 2014).
# Assay: label from the status in PepcDB records
row,Sequence,protein production
1,VADASDPIRPLVEALNAEAPLKLWSVLVTCLGDVSRDGVIEVSGVALSSFVERMGLQPQAMRVALHRLKRDGWVESRRLGRVGFHRLSDSALTQTRAVAGRIYGPGAGPAPWHLAGMPPDAPDGLSLLPDTLSATPISRRFALICGPLEDVPEDWLLTAPSGRGLPVWVQDVVVEAGCEAEFKALERTLAQIDKVPDTRLERFTLRVLVLHAWRRLILRSSPAAEAALGGARAEISCRARVHQLLDQLGSVEPDWDLPATEDAAS,not failed
2,MRNHPLGIYEKALAKDLSWPERLVLAKSCGFDFVEMSVDETDERLSRLEWTSAQRASLVSAMLESGVAIPSMCLSAHRRFPFGSRDEAVRQRAREIMTKAIRLARDLGIRTIQLAGYDVYYEEHDEGTRQRFAEGLAWAVEQAAAAQVMLAVEIMDTAFMNSISKWKKWDEMLSSPWFTVYPDVGNLSAWGNDVTAELKLGIDRIAAIHLKDTLPVTGDSPGQFRDVPFGEGCVDFVGIFKTLHELNYRGSFLIEMWTEKSSEPVLEIIQARRWIESRMQEGGFTC,failed
3,MKEIQYEIVKEIAVLSASDSGYTKEINLISWNGREPKYDIRSFSPNREKCGKGITLNADEAAALLEALQKEVNSGD,failed
4,MKIAVMGYGTIGSGVVEVLEINKEKIAKRAGEPIEVKYVLDLREFPGTPIENKIVHDYKVIAEDPEIGIVVETMGGVEPAFTFVKAMLEAGKQVATSNKNLVAAKGAELIKVARDHGVNFQFEASVGGGIPIIRPLNKCLTADEIEEITGILNGTTNYMLTKMTEEGADFDEVLKDAQDKGYAEKDPTADIEGYDPCRKIAILTSLVAGQQVDFEDIHCEGITKITPEDIKYAKAMHRAIKLLASSRKVGDSYTCLVAPYMIDDTHPLSGVNGVFNGVFLRGNVLGDAMFYGSGAGKLPTASAVVADVVDMTKHQNTNIYIDWKPEKLTLVSYDDSVNSFFVRTDSPKSEVEAVFGHVDYIEDVVDGEYAFTTGDMTEKDFADKASKINVINRIRL,failed
5,MSLCINPQCSKPQNPDNVLFCQTCGSELLLEGRYRVVSVLGGGGFGKTFAVNDTRTQTARVLKVLINNHPKAVELFQREAQVLALLNYPGIPTVEANGYFVYFPRNIQEPMHCLIMEKIEGLDLGEYLRQRDYRPIDEKLALQWFKEVVTILHQVHQQGLFHRDIKPSNIMLRADGRLVLIDFGTARSVTGTYIAKQAVGQVTGVISAGYTPSEQINGQAVQQSDFFALGRTFIYLLTGKEPSDPTIYNYLKDELHWRDGLLSSESNSVPPTVGYGVPPTVGDRTNILPQFADLLDQMMERLPGQRPQNTHIILQRLADIEKNLHPSSPPPPKPKGWTRRRLITVVGFSSLGLTGALAISRLLPKTTVIVSQEGGGDYKTIGAAMQNAQPGMRILVRPGLYQESLVLDKALKIIGDGAKAEIIIESKGASCLVVKTDQAEIRGLTFRSRAGTENKQYFAVDISQGQIILADCDITSDSLSGIGIHGATANPVIQKCQIHDGKQSGIYLYENSRGTIEDCDLFGNTTTEITVDAAQPIIRRCKIRQDKEGGILFRNQAQGTVEDCDIFNNNLSGIEIRDSSNPIIQKCRIHDNQQGDGILVHLNGRGTVEDCNIFGNGFSGVEIRDRGNPVIRRCNINKNKYYGVYAYKNSMGTVENCDLTGNIRSAINVDETSQLQRSGNVELEHHHHHH,failed
6,MVLAVLFPTYPAYEFAGYALPGVSTTLGVFSLTVLTNTVLFALAYPLVLGARNALTGNVSVVMFVGRRVAADDLATVHGSLLESSAGGFTRSGLDLDALRMYLRWRDCTLADLRSDPGLRHPDTLPDTPGDPTDGAVATDGSGDPWGAAAFLADIDHSAYGTTPAQLRDGLDLITDHDDVWVTPGVPFLLPLFAGLVVALTFGDVLFYVLDALGFAAA,failed
7,MSLKNKFKNFFSLDDEEYEYEYIETDREEIPEEHESKDRTAYQSKAAGKQNVVSLQSVQKSSKVVLSEPRVYAEAQEIADHIKNRRAVVVNLQRIQHDQAKRIVDFLSGTVYALGGDIQRIGADIFLCTPENVDVSGTISELIEEEHQRW,failed
8,MATTSAQTSPTEFGAGLPEAEDHSESAEPQSVEAEVIDERYADVWEKIQHARTIDVHDDAEVRKQRNFFDDKQKFMTQVTQRAEPFLYYIVSQLEARNMPLELALLPIVESGYNPLAQANGPAGLWQMIPATGRNFGLTINSAYDGRKDALASTDAVLDYLQHLYNTLGNDWINAVAGYNSGELVIKAAIDRNKAKGKPTDFWSLNIPARQVQTVPKWLAFIQIIREPSHYNLKVMPIANRPFLERLPAPNGVEISQIANAAGLTKAEFKTYNPGYRQSVIPSKGKYQIALPIENIGHYQENQHKLYAQKRYDSQTYIVKSGDSLGTIAAKFDLSVKELKQANNLTSDRLKIGQELTLLTPMAANDNEPEPVKTKANTDKSSTKANASSTKATSSKSTDKPVAKAKTYKVKSGDSLDKIARKSKVKLADLMKWNQLNAKSIIKPGQELKISELEHHHHHH,failed
9,MAALAEEQTEVAVKLEPEGPPTLLPPQAGDGAGEGSGGTPNNGPNGGGGGNVAVAAAAGGDGGTPKPGVAVSAAAPAGAAPVPAAPAEAGAPHDRQTLLAVLQFLRQSNLREAEEALRREARLLEEAVAGSGAPGELDGAGAEAASALLSRVTASVPGSAAPEPPGTGASVTSVFSGSASGPAAPGKVASVAVEDQPDVSAVLSAYNQQGDPTMYEEYYSGLKHFIECSLDCHRAELSQLFYPLFVHMYLELVYNQHENEAKSFFEKFHGDQECYYQDDLRVLSSLTKKEHMKGNETMLDFRTSKFVLRISRDSYQLLKRHLQEKQNNQIWNIVQEHLYIDIFDGMPRSKQQIDAMVGSLAGEAKREANKSKVFFGLLKEPEIEVPLDDEDEEGENEEGKPKKKKPKKDSIGSKSKKQDPNAPPQNRIPLPELKDSDKLDKIMNMKETTKRVRLGPDCLPSICFYTFLNAYQGLTAVDVTDDSSLIAGGFADSTVRVWSVTPKKLRSVKQASDLSLIDKESDDVLERIMDEKTASELKILYGHSGPVYGASFSPDRNYLLSSSEDGTVRLWSLQTFTCLVGYKGHNYPVWDTQFSPYGYYFVSGGHDRVARLWATDHYQPLRIFAGHLADVNCTRFHPNSNYVATGSADRTVRLWDVLNGNCVRIFTGHKGPIHSLTFSPNGRFLATGATDGRVLLWDIGHGLMVGELKGHTDTVCSLRFSRDGEILASGSMDNTVRLWDAVKAFEDLETDDFTTATGHINLPENSQELLLGTYMTKSTPVVHLHFTRRNLVLAAGAYSPQ,failed
10,MTAQKMSAQEIIAFIGNAEKKTNVKVTFEGALAAALPENVVKLGNVLFGDWKDIEPLLANLTENKDYVVEQDGRNSAVPLLDK,not failed
11,MKIFGTDGVRGKAGVKLTPMFVMRLGIAAGLYFKKHSQTNKILIGKDTRKSGYMVENALVSALTSIGYNVIQIGPMPTPAIAFLTEDMRCDAGIMISASHNPFEDNGIKFFNSYGYKLKEEEEKAIEEIFHDEELLHSSYKVGESVGSAKRIDDVIGRYIAHLKHSFPKHLNLQSLRIVLDTANGAAYKVAPVVFSELGADVLVINDEPNGCNINDQCGALHPNQLSQEVKKYRADLGFAFDGDADRLVVVDNLGNIVHGDKLLGVLGVYQKSKNALSSQAVVATNMSNLALKEYLKSQDLELKHCAIGDKFVSECMQLNKANFGGEQSGHIIFSDYAKTGDGLVCALQVSALVLESKQVSSVALNPFELYPQSLVNLNVQKKPPLESLKGYSALLKELDKLEIRHLIRYSGTENKLRILLEAKDEKLLESKMQELKEFFEGHLC,failed
12,LLALWVSAGELMAASKGAAGFTKATQEVSSYQTPVSNLMKAIAAVIVLVGAFNVYFKMQNGDQDVKKTIMLTIGGCIAFIALSEALPLFF,failed
13,MISVCIATYNGEKYLAEQLDSILLQVSEEDELIISDDGSTDHTLEILRTYAANYPQIQLLQGPGQGVIANFAFALTHTKGEVIFLADQDDVWLPNKVTTVTEYFETHPDIQVVISDLKIVDADLQVTNPSYFKFRKVKPGFWRNAIKSGYIGAGMAFRQEMKNVILPIPPEVPMHDMWIGLLAARKKQTGLIKEPLVLYRRHGANVSPIITKTSFQQKLNWRVNLLKALHQRLKEQRLEHHHHHH,not failed
14,MAQKVEAGGGAGGASWDDGVHDGVRKVHVGQGQDGVSSINVVYAKDSQDVEGGEHGKKTLLGFETFEVDADDYIVAVQVTYDNVFGQDSDIITSITFNTFKGKTSPPYGLETQKKFVLKDKNGGKLVGFHGRAGEALYALGAYFATTTTPVTPAKKLSAIGGDEGTAWDDGAYDGVKKVYVGQGQDGISAVKFEYNKGAENIVGGEHGKPTLLGFEEFEIDYPSEYITAVEGTYDKIFGSDGLIITMLRFKTNKQTSAPFGLEAGTAFELKEEGHKIVGFHGKASELLHQFGVHVMPLTN,failed
15,MSAEKSSADTAKKTLTIYSTMSTDSERDTFRKLAAAFEKEHSDIHVSLHFPGNDYENMMRVRMAANDLPDLFDTHGWGKIRYGEYTADLRDMKWTQDLDPNLNSILKNKSGKVYAYPINQAKDGLAYNRNILDRYGIAPPETMDDFIKALRTIKEKSKGSIVPFWFAGYDKSSFAQYYDQFATPLLITDPAHNEKKQLINGTFQWSKFTYLSEILKQMQKEKLINIDAVTAKKSQLIELMAQNKIAFTMQGGTLGQDVAQINPNVKVGIIPTPAIHPGDDPIWIGGERYTLAAWKDSPQLKEAKDFIAFMARPANAKQMAEATSLPSGLTNVKADIFYANDYEYYQDVKVEPYFDRLYLPNGMWDVLGTVGQELAADILAPQDISQKLGREYKRLREQSETQGAENNELEHHHHHH,not failed
16,MNQLTSSFIQNLAEDNIYKLPPHSIEAEQSVLGGLMLDNQAWDKVADIIIESDFYRQDHQLIYQHISRLIEQNKPADVITVAESLENAAQLQHAGGLAYIGAIAQNTPSAANIRRYAEIVRERSIMRKL,failed
17,MVDMDWKRKMVSSDLPNSPKLSSKLHVTIPSPFKIVPVSSPISCSAPALCSAYELYLRLPELRKLWSSRDFPQWTSEPILKPALQALEISFRLVFAVCSDTRPYINHREWNRRLDSLITKQIQLVAAICEDEEEEGISAEAPVGGGRSSLSLLPQLATWRRSEALGKKILYTIDNEMSRCKYTLGLGEQNIAGKPNLRYDAICRPNEIYSLKDNPYADHIDNHENQTLYIIHQILESWIYASGNLLNRIVSSIEEEKFGKASNDVYLLEKIWKILAEIEDLHMLMDPEDFLKLKKQLQIKSTGKNDAFCFRSKGLVEMMKMSKDLRQKVPAVLAVEVDPTGGPRLQEAAMKLYARKTECDKIHLLQGMQAVEAAAKSFFFGYRQLVAAMMGSAEMNATASQESCDSLSQIFMEPTYFPSLDAAKTFLGEFWSHLG,failed
18,MFLTLSGADMSALIKGSGPHHVVVLNGWFGHAAGWGAFADYLDLGNYTWHFWDYRGYGNRKDDAGEFTLEEISADIVAYIDSIEAEKVSILGHSMGGVFMQKVLADSATPIASLVGISAVAAAGTPFDEDSRKLFTSAGHNPDSRRAIIDFTSGSRQPAAWLDDLTDSTVQNSTPEAVEKYFFAWADCNFAADLGTQDLPVYILTGDLDPAVTKTAVESAFGPIYQNLTVEELHDVGHYAIFEHPLGLAARVLRFLDAV,failed
19,MTAPGSVPLTVIGGFWGAGKTTLLNYLLKVQHSERVLVMVNDFGSINIDAELLDQGRHDRPGVVRLQNGCVCCSIGGDLMQAFLQVMSMPDRPDRIIVEASGVADPTRIAQIGRVSGGLSDEGVITLVDASAVRALAADKYVGDIVRQQILSADIVLLNKLDLSSDAEIVETRAWLRDLAPRTRVVSCIHGEVDAVSVLGIGAGKVAPDTAGGPVDVPVPDLRRASTRHADTFHSSTLATEHRFDRRRIEYALDALPQTVLRGKGFVELEGEATPALLQLCGSRWTLDPVSTPAPPAGTHLVFIATGGRGVPRFDAPSHFEQALASRDAASADTSNLEHHHHHH,failed
20,EKEFYLDSSSEALEEKAITHTSKKPDTPEEITISLNGHLFTGNTEQPLLMQVEEAGLSINNSCRAGLCGACRVTLESGEVEQEDSPALNQKLKEAGMILACCSVPKTDVEIVD,failed
21,GSSGSSGWVAFDKQVLSFDAYLEEEVLDKSQTNYRIRYYKIYFYPEDDTIQVNEPEVKNSGLLQGTSIRRHRITLPPPDEDQFYTVYHFNVGTEVVFYGRTFKIYDCDAFTRNFLRKIGVKVNPPVQSGPSSG,not failed
